The results in this text go back to patent US20250355002A1.

The experiment addresses recombinant cryptic HDGFL2 with C-terminal glycine serine linker and 6-HisTag (human) (UniProt Q7Z4V5). The experiment can be described thus: MSD sandwich ELISA on HeLa overexpression lysates; mouse IgG isotype control in place of the capture antibody. On the technique in general: In an ELISA, binding on a coated surface is turned into a signal by an enzyme label.
Sequence of UniProt Q7Z4V5 (Q7Z4V5 other isoform, or with tags, fused parts or gaps limits assumed): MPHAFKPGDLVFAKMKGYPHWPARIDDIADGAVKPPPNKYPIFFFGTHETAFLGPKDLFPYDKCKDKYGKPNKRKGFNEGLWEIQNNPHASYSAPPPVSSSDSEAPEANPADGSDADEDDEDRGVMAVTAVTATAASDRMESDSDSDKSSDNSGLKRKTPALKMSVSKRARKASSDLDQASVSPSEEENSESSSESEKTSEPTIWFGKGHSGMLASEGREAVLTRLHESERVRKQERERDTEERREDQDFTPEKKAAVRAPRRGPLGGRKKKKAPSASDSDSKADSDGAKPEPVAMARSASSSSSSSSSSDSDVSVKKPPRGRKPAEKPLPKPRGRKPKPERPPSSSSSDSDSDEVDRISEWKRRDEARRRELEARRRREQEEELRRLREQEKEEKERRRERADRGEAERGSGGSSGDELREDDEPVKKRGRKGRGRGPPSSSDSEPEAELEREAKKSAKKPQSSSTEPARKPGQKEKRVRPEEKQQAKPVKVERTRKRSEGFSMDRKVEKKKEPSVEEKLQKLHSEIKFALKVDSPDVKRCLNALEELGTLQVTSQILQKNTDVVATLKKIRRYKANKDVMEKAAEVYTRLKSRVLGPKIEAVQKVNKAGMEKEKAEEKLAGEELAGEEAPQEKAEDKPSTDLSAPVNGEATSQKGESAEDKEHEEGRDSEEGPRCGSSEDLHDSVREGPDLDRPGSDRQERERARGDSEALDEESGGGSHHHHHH

Regarding “mouse IgG isotype control (for the capture antibody)”, the ratio of cryptic/WT HDGFL2 lysate MSD signal was determined as 1.
